These results are taken from article doi:10.1101/2025.06.13.659598 (bioRxiv, 2025).

For this test, the target named is F-actin (rabbit skeletal muscle actin, polymerised) (rabbit, UniProt P68135 1-377). Kind of test: co-sedimentation.

B1: FHOD1 wild-type, full length (natural protein)
chain: MAGGEDRGDGEPVSVVTVRVQYLEDTDPFACANFPEPRRAPTCSLDGALPLGAQIPAVHRLLGAPLKLEDCALQVSPSGYYLDTELSLEEQREMLEGFYEEISKGRKPTLILRTQLSVRVNAILEKLYSSSGPELRRSLFSLKQIFQEDKDLVPEFVHSEGLSCLIRVGAAADHNYQSYILRALGQLMLFVDGMLGVVAHSDTIQWLYTLCASLSRLVVKTALKLLLVFVEYSENNAPLFIRAVNSVASTTGAPPWANLVSILEEKNGADPELLVYTVTLINKTLAALPDQDSFYDVTDALEQQGMEALVQRHLGTAGTDVDLRTQLVLYENALKLEDGDIEEAPGAGGRRERRKPSSEEGKRSRRSLEGGGCPARAPEPGPTGPASPVGPTSSTGPALLTGPASSPVGPPSGLQASVNLFPTISVAPSADTSSERSIYKARFLENVAAAETEKQVALAQGRAETLAGAMPNEAGGHPDARQLWDSPETAPAARTPQSPAPCVLLRAQRSLAPEPKEPLIPASPKAEPIWELPTRAPRLSIGDLDFSDLGEDEDQDMLNVESVEAGKDIPAPSPPLPLLSGVPPPPPLPPPPPIKGPFPPPPPLPLAAPLPHSVPDSSALPTKRKTVKLFWRELKLAGGHGVSASRFGPCATLWASLDPVSVDTARLEHLFESRAKEVLPSKKAGEGRRTMTTVLDPKRSNAINIGLTTLPPVHVIKAALLNFDEFAVSKDGIEKLLTMMPTEEERQKIEEAQLANPDIPLGPAENFLMTLASIGGLAARLQLWAFKLDYDSMEREIAEPLFDLKVGMEQLVQNATFRCILATLLAVGNFLNGSQSSGFELSYLEKVSEVKDTVRRQSLLHHLCSLVLQTRPESSDLYSEIPALTRCAKVDFEQLTENLGQLERRSRAAEESLRSLAKHELAPALRARLTHFLDQCARRVAMLRIVHRRVCNRFHAFLLYLGYTPQAAREVRIMQFCHTLREFALEYRTCRERVLQQQQKQATYRERNKTRGRMITETEKFSGVAGEAPSNPSVPVAVSSGPGRGDADSHASMKSLLTSRPEDTTHNRRSRGMVQSSSPIMPTVGPSTASPEEPPGSSLPSDTSDEIMDLLVQSVTKSSPRALAARERKRSRGNRKSLRRTLKSGLGDDLVQALGLSKGPGLEV
Regarding B1, the binding result was “binds”.
